For assay [1], the target named is refolded PD-1 protein (L25-R147) expressed in E. coli (Homo sapiens, UniProt Q15116). The assay is described as follows: SPR. (In SPR one partner is held on a chip, and binding of the other changes the refractive index at the surface.)
Assay [2] deals with human PD-1 on 293T cells stably transfected with human PD-1 (human, UniProt Q15116). The assay is described as follows: flow cytometry on cells.
Assay [3] concerns the target recombinant human PD-1 extracellular domain (ECD) fusion protein (human, UniProt Q15116). The assay is described as follows: ELISA.

Values joined by “and” are separate entries in the source; they are usually repeats but may differ in a detail not shown here. Equal values may be shown once.

Chain of recombinant human PD-1 extracellular domain (ECD) fusion protein (Q15116 25-170): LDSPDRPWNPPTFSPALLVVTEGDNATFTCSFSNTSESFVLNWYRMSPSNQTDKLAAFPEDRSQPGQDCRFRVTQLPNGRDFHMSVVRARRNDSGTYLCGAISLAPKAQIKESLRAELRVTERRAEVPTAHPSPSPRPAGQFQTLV
Chain of human PD-1 on 293T cells stably transfected with human PD-1 (Q15116 25-288): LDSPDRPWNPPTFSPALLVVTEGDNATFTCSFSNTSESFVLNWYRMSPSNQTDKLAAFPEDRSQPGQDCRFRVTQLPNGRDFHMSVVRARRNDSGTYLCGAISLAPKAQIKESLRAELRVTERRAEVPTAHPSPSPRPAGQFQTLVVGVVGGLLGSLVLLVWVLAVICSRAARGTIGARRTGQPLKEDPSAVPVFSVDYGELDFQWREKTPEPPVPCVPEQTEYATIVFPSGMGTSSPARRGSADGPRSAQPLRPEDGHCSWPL
Chain of refolded PD-1 protein (L25-R147) expressed in E. coli (Q15116 25-147): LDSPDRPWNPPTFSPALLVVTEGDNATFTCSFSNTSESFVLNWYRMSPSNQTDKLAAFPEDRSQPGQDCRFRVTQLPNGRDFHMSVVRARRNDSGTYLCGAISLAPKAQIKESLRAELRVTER

B1: toripalimab (antibody, V domains shown)
VH: QGQLVQSGAEVKKPGASVKVSCKASGYTFTDYEMHWVRQAPIHGLEWIGVIESETGGTAYNQKFKGRVTITADKSTSTAYMELSSLRSEDTAVYYCAREGITTVATTYYWYFDVWGQGTTVTVSS
VL: DVVMTQSPLSLPVTLGQPASISCRSSQSIVHSNGNTYLEWYLQKPGQSPQLLIYKVSNRFSGVPDRFSGSGSGTDFTLKISRVEAEDVGVYYCFQGSHVPLTFGQGTKLEIK
Regarding B1, in assay [1], the Kd – broadly, the free concentration of one partner at which half of the binding sites on the other are occupied at equilibrium, for simple one-to-one binding – was 0.324 nM. Moreover, the half-inhibitory concentration (IC50) (as a rule, the midpoint of a concentration-inhibition curve) in assay [2] was 1.3 nM and 3.7 nM; in assay [3], 0.8 nM and 1.3 nM.

For the origin of these results see paper PMC6601540 (mAbs, 2019).
